The text below walks through data of patent US7790682B1, “Engineered human acidic fibroblast growth factors and associated methods” (The Florida State University Research Foundation, Inc., priority 2003, dated 2010).

Series [1] in a line: Isothermal equilibrium denaturation in guanidine HCl monitored by CD. Format: physicochemical. Conditions: for Cm / m-value / ΔG0: GuHCl, 298K, CD signal at 227 nm; for ΔΔG: relative to WT*, negative value = more stable. The procedure:
Protein samples were equilibrated overnight in 20 mM N-2-(acetamido)iminodiacetic acid (ADA), 100 mM NaCl pH 6.60 at 298K in 0.1M increments of guanidine HCl (GuHCl). All samples contained a final protein concentration of 25 μM. An Aviv model 202 circular dichroism spectrometer (Proterion Corp., Piscataway, N.J.) equipped with a Peltier controlled temperature unit maintaining a constant temperature of 298K was used for all spectroscopic measurements. For each sample, triplicate scans were collected and averaged. Buffer traces were collected, averaged and subtracted from the sample traces. Data smoothing was performed prior to buffer subtraction using a 5-point Fourier transform filter. The denaturation process was monitored by observing the change in CD signal at 227 nm with increasing GuHCl, according to published references. The general purpose non-linear least squares fitting program DataFit™ (Oakdale Engineering, Oakdale Pa.) was used to fit the change in molar ellipticity at 227 nm versus GuHCl concentration to a six parameter two state model: F=(F0N+SN[D]+F0D+SD[D])e^−((ΔG0+m[D]/RT)/1+e^−((ΔG0+m[D]/RT) (1) where [D] is the denaturant concentration, F0N and F0D are the 0M denaturant molar ellipticity intercepts for the native and denatured states, respectively, and SN and SD are the slopes of the native and denatured state baselines, respectively. ΔG0 and m describe the linear function of the unfolding free energy versus denaturant concentration at 298K. The effect of a given mutation upon the stability of the protein (ΔΔG) was calculated by taking the difference between the Cm values for WT* and mutant and multiplying by the average of the m values, as described by Pace and Scholtz (Measuring the conformational stability of a protein; in Protein Structure: A Practical Approach, Creighton, T. E., ed., pp. 299-321, Oxford University Press, Oxford; 1997): ΔΔG=(CmWT*−Cm mutant)(mWT*+mmutant)/2 (2) Folding Kinetics Measurements.
Previous studies by others of the stability and folding of FGF-1 have been performed by monitoring the fluorescence signal of the single buried Trp 107 in FGF-1. This Trp in the WT* structure is somewhat unusual in that it is more highly quenched in the native state than the denatured. […] We have previously compared the fluorescence and CD spectroscopic response of FGF-1 to denaturation by GuHCl and shown essentially indistinguishable results for both his-tagged and non-his-tagged forms. A tabulation of the mutant thermodynamic data from isothermal equilibrium denaturation, monitored by CD signal, is listed in Table II. The data in this table for the SYM6 mutant are from our previously published isothermal equilibrium denaturation study monitored by fluorescence.

A short description of series [2]: Folding and unfolding kinetics (Chevron plot, stopped-flow CD, GuHCl). Format: physicochemical. The following applies: for kf: folding rate constant extrapolated to 0M GuHCl; for kf / ku: global Chevron fit; for ΔΔG‡-D / ΔΔG‡-N: in reference to WT*; for ΔΔG‡-D: positive value = decrease in folding activation barrier; for ΔΔG‡-N: positive value = decrease in unfolding activation barrier; for mf: slope of ln(kf) vs GuHCl; for mu: slope of ln(ku) vs GuHCl; for ku: unfolding rate constant extrapolated to 0M GuHCl. The procedure:
Due to signal-to-noise considerations, relatively high protein concentrations (>100 μM) of FGF-1 were required for kinetic studies monitored by CD. At these concentrations protein precipitation occurred in ADA buffer. Therefore, a different buffering system was chosen for the kinetic studies to permit higher protein concentrations without precipitation. Protein samples were dialyzed against 50 mM sodium phosphate, 100 mM NaCl, 10 mM ammonium sulfate, 2 mM DTT, and typically 2.5, 3.0 or 3.8M GuHCl pH 7.5 overnight at 298K prior to data collection (higher concentrations of GuHCl were required to ensure complete denaturation for some stabilizing mutations).
Protein samples were degassed for 10 minutes prior to analysis. Refolding was initiated by a 1:10 dilution of protein solutions into 50 mM sodium phosphate, 100 mM NaCl, 10 mM ammonium sulfate, 2 mM DTT pH 7.5 containing either 0.1M or 0.05M increments of GuHCl up to the midpoint of denaturation. All data were collected using an Aviv model SF305 stopped flow system. Data collection times for each protein were designed to quantify the CD signal over 5 half-lives, or >96% of the total expected amplitude.
Protein samples (300 μM) were dialyzed against 50 mM sodium phosphate, 100 mM NaCl, 10 mM ammonium sulfate, 2 mM DTT pH 7.50 buffer overnight at 298K, and degassed for 10 min prior to data collection. Unfolding was initiated by 1:10 dilution of the native protein into 50 mM sodium phosphate, 100 mM NaCl, 10 mM ammonium sulfate, 2 mM DTT pH 7.5 buffer with final GuHCl concentration in the range of 1.5 to 5.5M in 0.5M increments. The unfolding process was quantified by following the change in CD signal at 227 nm, and data collection times for each protein were designed so as to monitor the CD signal over 3 to 4 half-lives, or >93% of the total expected amplitude.
Triplicate scans were collected for both folding and unfolding kinetic data at each GuHCl buffer condition. In all cases, data from at least three separate experiments were averaged. The kinetic rates and amplitudes versus denaturant concentration were calculated from the time dependent change in CD signal using a single exponential model: I(t)=Aexp(−kt)+C (3) where I(t) is the intensity of CD signal at time t, A is the corresponding amplitude, k is the observed rate constant for the reaction and C is a constant that is the asymptote of the CD signal. Folding and unfolding rate constant data were fit to a global function describing the contribution of both rate constants to the observed kinetics as a function of denaturant (“Chevron” plot): In(kobs)=In(kf0exp(mkfD)+ku0exp(mkuD)) (5) where kf0 and ku0 are the folding and unfolding rate constants, respectively, extrapolated to 0M denaturant, mkf and mku are the slopes of the linear functions relating In(kf) and In(ku), respectively, to D, the denaturant concentration. Changes in activation barriers upon mutation were calculated using a modified version of transition state theory: ΔΔG‡-D=RTIn(kf Mut/kfWT*) and ΔΔG‡-N=RTIn(ku Mut/kuWT*) (6) where kf Mut, ku Mut, kf WT* and ku WT* are the folding and unfolding rates for mutant and WT*, respectively, in water. ΔΔG‡-D, and ΔΔG‡-N are the changes in the activation barrier for folding and unfolding, respectively, between mutation and WT*. A positive value for ΔΔG‡-D or ‡‡G‡-N indicates a decrease in the associated activation barrier energy. Isothermal Titration Calorimetry.
Due to the relatively weak differential CD signal of native and denatured FGF-1, the folding kinetics study required relatively high protein concentrations (>5 mg/ml). […] Thus, the refolding rate constants were not obtainable below certain denaturant concentrations for these mutants. […] The SYM6Δ120-122 mutant is substantially destabilized relative to the WT* protein (see Table II) and presents a relatively short “folding arm” in the Chevron plot, for this reason there is greater uncertainty associated with the folding kinetics determined for this mutant. […]

B1: SYM5/ΔΔ: SYM5 FGF-1 mutant plus both Δ104-106 and Δ120-122 deletion mutations (protein, UniProt P05230 16-155, looked up, variant L44F L73V V109L L111I C117V A103G del104-106 R119G del120-122)
Fibroblast growth factor 1: FNLPPGNYKKPKLLYCSNGGHFLRILPDGTVDGTRDRSDQHIQFQLSAESVGEVYIKSTETGQYLAMDTDGLVYGSQTPNEECLFLERLEENHYNTYISKKHGWFLGIKKNGSVKGTHYGQKAILFLPLPVSSD
As for B1, in series [1], the Cm came to 1.89 ± 0.01 M, the m-value is 18.1 ± 0.7 kJ/mol M, the ΔG0 is 8.17 ± 0.287 kcal/mol and the ΔΔG is -3.8 kcal/mol. Further, in series [1] (relative to the SYM5 protein), the “stability of the actual combination mutant” value is -3.61 kcal/mol. Besides, in series [2] (all denaturant concentrations evaluated), the folding behavior result is recorded as “single exponential folding behavior”. For the same molecule, in series [2], the kf is 40.4 s⁻¹, the “ΔΔG‡-D” value is 1.48 kcal/mol, the “ΔΔG‡-N” value was 0.146 kcal/mol and the mf was -4.57 M⁻¹. For the same molecule, in series [2], the mu was determined as 0.66 M⁻¹ and the ku is 0.88 1 × 10^−3 sec^−1.

B2: SYM6/Δ120-122: SYM6 FGF-1 mutant plus Arg119→Gly/ΔGly120/ΔPro121/ΔArg122 (protein, UniProt P05230 16-155, looked up, variant L44F M67I L73V V109L L111I C117V R119G del120-122)
Fibroblast growth factor 1: FNLPPGNYKKPKLLYCSNGGHFLRILPDGTVDGTRDRSDQHIQFQLSAESVGEVYIKSTETGQYLAIDTDGLVYGSQTPNEECLFLERLEENHYNTYISKKHAEKNWFLGIKKNGSVKGTHYGQKAILFLPLPVSSD
For the molecule B2, in series [1], the Cm is reported as 0.79 ± 0.01 M, the m-value came to 20.0 ± 0.2 kJ/mol M, the ΔG0 came out at 3.75 ± 0.048 kcal/mol and the ΔΔG was found to be 1.29 kcal/mol. Moreover, in series [2], the kf was 17.3 s⁻¹, the “ΔΔG‡-D” value amounted to 0.98 kcal/mol, the “ΔΔG‡-N” value amounted to 1.45 kcal/mol and the mf is -9.45 M⁻¹. Besides, in series [2], the mu stood at 0.86 M⁻¹ and the ku is recorded as 7.95 1 × 10^−3 sec^−1.

B3: SYM6/Δ104-106: SYM6 FGF-1 mutant plus Ala103→Gly/ΔGlu104/ΔLys105/ΔAsn106 (protein, UniProt P05230 16-155, looked up, variant A103G E104* K105* N106*)
Fibroblast growth factor 1: FNLPPGNYKKPKLLYCSNGGHFLRILPDGTVDGTRDRSDQHIQLQLSAESVGEVYIKSTETGQYLAMDTDGLLYGSQTPNEECLFLERLEENHYNTYISKKHGWFVGLKKNGSCKRGPRTHYGQKAILFLPLPVSSD
modifications: SYM6 background mutations
notes: SYM6 FGF-1 mutant plus Ala103→Gly/ΔGlu104/ΔLys105/ΔAsn106
In series [1], B3 gave a Cm of 1.21 ± 0.01 M, a m-value of 16.9 ± 0.5 kJ/mol M, a ΔG0 of 4.9 ± 0.12 kcal/mol and a ΔΔG of -0.669 kcal/mol. Further, in series [2], the kf is 30.1 s⁻¹, the “ΔΔG‡-D” value worked out at 1.31 kcal/mol, the “ΔΔG‡-N” value was 0.935 kcal/mol and the mf is -5.41 M⁻¹. For the same molecule, in series [2], the mu worked out at 0.94 M⁻¹ and the ku is on record as 3.33 1 × 10^−3 sec^−1.
